Non-standard residues stand in square brackets, D forms with d. No end group written: not given here. pY = N[C@@H](Cc1ccc(OP(=O)(O)O)cc1)C(=O)O
Assays:
[1] = test system: PLCγ; test: SH2 domain protein binding assay, PLCγ; set-up: key: +++ = high affinity binding
Source text: (§1) This Example describes binding assays for various proteins that contain SH2 domains.

[2] = biological target: T1, Ras-GAP (Homo sapiens, UniProt P20936); test: SH2 domain protein binding assay, Ras-GAP; set-up: key: +++ = high affinity binding
T1 sequence (P20936 1-1047): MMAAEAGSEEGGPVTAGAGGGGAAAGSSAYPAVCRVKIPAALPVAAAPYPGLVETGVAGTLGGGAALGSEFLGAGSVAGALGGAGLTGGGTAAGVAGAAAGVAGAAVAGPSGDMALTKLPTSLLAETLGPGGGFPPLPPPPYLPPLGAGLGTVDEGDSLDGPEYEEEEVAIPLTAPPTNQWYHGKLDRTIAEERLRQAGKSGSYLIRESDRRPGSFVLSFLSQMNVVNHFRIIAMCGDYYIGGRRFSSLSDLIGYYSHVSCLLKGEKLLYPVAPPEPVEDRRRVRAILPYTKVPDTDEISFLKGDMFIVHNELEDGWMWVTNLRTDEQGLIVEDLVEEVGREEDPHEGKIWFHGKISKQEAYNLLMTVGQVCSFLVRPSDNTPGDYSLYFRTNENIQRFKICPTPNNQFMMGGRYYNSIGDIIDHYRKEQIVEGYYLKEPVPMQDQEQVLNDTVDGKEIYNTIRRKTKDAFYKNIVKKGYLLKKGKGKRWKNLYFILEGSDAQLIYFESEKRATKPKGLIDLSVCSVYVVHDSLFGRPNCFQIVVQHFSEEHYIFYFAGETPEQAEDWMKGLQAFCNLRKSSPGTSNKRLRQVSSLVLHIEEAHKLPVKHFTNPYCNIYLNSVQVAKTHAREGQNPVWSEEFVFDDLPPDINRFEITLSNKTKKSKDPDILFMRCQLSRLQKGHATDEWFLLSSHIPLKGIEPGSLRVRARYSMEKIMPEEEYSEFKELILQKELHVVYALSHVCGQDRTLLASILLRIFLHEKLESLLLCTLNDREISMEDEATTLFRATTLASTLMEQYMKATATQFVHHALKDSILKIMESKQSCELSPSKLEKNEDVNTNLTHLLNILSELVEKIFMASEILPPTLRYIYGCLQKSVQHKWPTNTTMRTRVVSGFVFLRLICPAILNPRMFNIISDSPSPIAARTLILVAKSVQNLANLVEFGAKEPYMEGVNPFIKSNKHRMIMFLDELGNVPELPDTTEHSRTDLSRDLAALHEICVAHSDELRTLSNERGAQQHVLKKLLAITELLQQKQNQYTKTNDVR
Source text: as §1

[3] = biological target: P85-PI3K (Homo sapiens, UniProt P27986); test: SH2 domain protein binding assay, P85-PI3K; set-up: key: +++ = high affinity binding
Source text: as §1

[4] = biological target: Src (Homo sapiens, UniProt P12931); test: SH2 domain protein binding assay, Src; set-up: key: +++ = high affinity binding
Source text: as §1

[5] = biological target: T2, STAT6 (Homo sapiens, UniProt P42226); test: SH2 domain protein binding assay, STAT6; set-up: key: +++ = high affinity binding
T2 sequence (P42226 1-847): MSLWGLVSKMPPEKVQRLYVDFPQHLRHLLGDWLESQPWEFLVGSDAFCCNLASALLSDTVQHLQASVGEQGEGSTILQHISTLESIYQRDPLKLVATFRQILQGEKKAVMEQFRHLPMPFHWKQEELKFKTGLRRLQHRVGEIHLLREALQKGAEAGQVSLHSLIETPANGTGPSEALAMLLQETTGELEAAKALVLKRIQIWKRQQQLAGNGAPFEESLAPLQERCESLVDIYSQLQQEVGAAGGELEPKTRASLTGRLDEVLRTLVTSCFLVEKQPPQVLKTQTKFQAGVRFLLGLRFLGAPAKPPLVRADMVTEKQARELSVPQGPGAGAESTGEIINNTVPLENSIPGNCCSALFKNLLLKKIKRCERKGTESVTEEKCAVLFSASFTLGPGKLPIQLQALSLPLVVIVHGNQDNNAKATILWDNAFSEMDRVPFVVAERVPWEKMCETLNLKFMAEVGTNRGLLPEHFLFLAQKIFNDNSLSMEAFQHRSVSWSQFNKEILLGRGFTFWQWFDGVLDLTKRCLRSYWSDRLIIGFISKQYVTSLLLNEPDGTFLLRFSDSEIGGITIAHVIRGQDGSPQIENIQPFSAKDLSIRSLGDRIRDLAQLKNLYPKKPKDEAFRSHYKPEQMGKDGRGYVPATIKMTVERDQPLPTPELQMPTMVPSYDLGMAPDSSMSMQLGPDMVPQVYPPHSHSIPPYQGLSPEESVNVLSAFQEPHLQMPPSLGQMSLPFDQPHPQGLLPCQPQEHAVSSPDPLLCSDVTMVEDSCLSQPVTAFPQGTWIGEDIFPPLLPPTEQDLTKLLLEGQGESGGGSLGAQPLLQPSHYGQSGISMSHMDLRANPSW
Source text: as §1

[6] = biological target: T3, Syp (Homo sapiens, UniProt Q06124); test: SH2 domain protein binding assay, Syp; set-up: key: +++ = high affinity binding
T3 sequence (Q06124 1-593): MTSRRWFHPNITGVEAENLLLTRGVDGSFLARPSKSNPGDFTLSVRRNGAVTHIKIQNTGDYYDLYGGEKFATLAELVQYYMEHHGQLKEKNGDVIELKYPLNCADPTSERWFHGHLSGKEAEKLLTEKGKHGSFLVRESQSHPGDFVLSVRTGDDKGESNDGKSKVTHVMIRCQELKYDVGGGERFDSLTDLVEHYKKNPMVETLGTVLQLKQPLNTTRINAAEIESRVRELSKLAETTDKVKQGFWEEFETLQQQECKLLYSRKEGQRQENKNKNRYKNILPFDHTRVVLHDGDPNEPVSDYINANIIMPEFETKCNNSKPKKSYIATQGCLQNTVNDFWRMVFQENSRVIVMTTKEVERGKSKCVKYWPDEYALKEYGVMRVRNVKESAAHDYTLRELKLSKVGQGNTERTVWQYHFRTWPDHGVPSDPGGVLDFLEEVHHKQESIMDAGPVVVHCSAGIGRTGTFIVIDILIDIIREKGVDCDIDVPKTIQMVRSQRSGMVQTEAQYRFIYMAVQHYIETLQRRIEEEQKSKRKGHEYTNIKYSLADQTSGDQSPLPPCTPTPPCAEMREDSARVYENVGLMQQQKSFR
Source text: as §1

[7] = biological target: T4, STAT1 protein (UniProt P42224 1-750, limits assumed); test: method not stated; told of the SH2 domain of STAT1 at the start of Example 1
T4 sequence (looked up): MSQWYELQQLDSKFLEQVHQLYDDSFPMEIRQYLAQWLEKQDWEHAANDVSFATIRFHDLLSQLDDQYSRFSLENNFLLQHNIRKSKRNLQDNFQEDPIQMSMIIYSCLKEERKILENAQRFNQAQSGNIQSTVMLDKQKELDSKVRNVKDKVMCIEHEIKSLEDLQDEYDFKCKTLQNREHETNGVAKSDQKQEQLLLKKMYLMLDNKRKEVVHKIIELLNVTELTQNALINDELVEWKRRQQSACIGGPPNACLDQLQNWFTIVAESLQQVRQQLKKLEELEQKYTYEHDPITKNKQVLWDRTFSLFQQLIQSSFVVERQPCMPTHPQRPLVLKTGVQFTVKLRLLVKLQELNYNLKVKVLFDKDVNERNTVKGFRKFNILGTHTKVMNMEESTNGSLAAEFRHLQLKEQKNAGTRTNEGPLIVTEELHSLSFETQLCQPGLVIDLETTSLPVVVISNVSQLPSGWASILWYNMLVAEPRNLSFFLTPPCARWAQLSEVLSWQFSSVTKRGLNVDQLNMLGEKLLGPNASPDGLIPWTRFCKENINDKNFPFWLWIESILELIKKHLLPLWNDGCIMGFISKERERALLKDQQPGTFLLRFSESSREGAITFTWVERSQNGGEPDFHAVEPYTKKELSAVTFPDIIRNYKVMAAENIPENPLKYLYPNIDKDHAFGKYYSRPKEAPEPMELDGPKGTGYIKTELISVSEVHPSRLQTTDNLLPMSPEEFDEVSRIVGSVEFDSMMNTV

[8] = biological target: T4, STAT1 protein; test: concentration at 50% binding of the STAT protein to the phosphotyrosine peptide (Example 4)
[9] = biological target: T5, STAT4 (UniProt Q14765 1-748, limits assumed); test: as above
T5 construct: also called STAT4 polypeptide
T5 sequence (looked up): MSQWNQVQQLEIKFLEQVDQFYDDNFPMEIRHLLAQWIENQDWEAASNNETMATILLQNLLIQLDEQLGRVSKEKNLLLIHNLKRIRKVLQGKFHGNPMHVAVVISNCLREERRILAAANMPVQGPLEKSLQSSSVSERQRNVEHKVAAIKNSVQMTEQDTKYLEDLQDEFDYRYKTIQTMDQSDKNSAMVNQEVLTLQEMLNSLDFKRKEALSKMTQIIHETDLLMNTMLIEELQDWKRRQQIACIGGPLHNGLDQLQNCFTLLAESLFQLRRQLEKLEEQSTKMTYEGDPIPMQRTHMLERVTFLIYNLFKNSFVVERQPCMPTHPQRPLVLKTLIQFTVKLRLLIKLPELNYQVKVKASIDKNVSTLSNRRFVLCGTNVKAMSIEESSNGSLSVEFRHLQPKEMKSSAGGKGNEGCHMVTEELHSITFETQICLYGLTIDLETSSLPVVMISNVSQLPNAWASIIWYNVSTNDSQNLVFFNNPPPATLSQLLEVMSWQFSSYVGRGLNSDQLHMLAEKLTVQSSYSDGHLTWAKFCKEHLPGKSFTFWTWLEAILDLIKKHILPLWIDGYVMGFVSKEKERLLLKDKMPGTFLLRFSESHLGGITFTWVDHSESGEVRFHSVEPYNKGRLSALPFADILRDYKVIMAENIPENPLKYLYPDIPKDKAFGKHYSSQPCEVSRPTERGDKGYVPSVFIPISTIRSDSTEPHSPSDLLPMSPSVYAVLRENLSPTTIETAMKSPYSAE

Sequence of P85-PI3K (P27986 whole entry, the tested form may be a part): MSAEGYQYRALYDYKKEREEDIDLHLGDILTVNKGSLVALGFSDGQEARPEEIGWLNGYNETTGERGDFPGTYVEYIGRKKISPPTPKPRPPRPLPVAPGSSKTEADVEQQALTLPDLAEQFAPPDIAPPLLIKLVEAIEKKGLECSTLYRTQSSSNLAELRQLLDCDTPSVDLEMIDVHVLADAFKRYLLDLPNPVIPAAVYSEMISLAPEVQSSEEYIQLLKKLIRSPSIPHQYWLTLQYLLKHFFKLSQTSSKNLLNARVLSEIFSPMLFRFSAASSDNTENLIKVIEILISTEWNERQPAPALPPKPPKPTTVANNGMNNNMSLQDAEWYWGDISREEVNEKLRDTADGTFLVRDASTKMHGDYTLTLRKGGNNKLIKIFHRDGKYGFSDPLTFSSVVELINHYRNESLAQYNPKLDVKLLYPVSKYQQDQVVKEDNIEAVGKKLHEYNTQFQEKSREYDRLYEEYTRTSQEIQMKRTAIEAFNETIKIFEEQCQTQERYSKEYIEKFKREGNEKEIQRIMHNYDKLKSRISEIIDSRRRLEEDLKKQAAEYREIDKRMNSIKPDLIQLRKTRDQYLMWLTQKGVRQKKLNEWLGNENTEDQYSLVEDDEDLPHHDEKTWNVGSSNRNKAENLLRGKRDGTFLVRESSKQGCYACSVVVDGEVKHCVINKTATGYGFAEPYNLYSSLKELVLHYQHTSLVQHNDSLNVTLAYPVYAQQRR

## YITPLP: phosphotyrosine-containing peptide ligand ([pY]ITPLP)
[1]
  binding to PLCγ: +++

## YMAP: phosphotyrosine-containing peptide ligand ([pY]MAP)
[2]
  binding to Ras-GAP: +++

## YMDM: phosphotyrosine-containing peptide ligand ([pY]MDM)
[3]
  binding to P85-PI3K: +++

## YEEI: phosphotyrosine-containing peptide ligand
[4]
  binding to Src: +++

## GYKPFQDLI (G[pY]KPFQDLI) [phosphotyrosine-containing peptide ligand, Y is phosphotyrosine]
[5]
  binding to STAT6: +++

## YTAVQP: phosphotyrosine-containing peptide ligand ([pY]TAVQP)
[6]
  binding to Syp: +++

## YMNM: phosphotyrosine-containing peptide ligand ([pY]MNM)
[3]
  binding to P85-PI3K: +++

B1: interferon-γ receptor-derived peptide sequence GY^PDKPHVL (peptide)
peptide: G[pY]DKPHVL
[7]
  Kd: ~0.12 µM

B2: SFGY*DKPHVL (peptide)
peptide: SFG[pY]DKPHVL
[8]
  IC50: 0.6 µM
[9]
  IC50: 10 µM

B3: ASSGEEGY^PKPFQDLI (peptide)
peptide: ASSGEEG[pY]KPFQDLI
[9]
  IC50: 30 µM
